Substrate in data set [1]: O=C(O)CCC(=O)N[C@H](CCC(=O)O)C(=O)O
The experiment in a line: steady-state kinetics. Conditions: Zn2+; pH 7.5. It is filed as biochemical, Bordetella bronchiseptica.

Substrate in data set [2]: O=CN[C@H](CCC(=O)O)C(=O)O
The experiment in a line: steady-state kinetics. The data set is classed as biochemical, Bordetella bronchiseptica. Conditions: Zn2+; pH 7.5.

These results are taken from publication PMC2748305.

B1: Bb3285 (N-acyl-D-glutamate deacylase) (Bordetella bronchiseptica RB50) (protein)
chain: MQNAEKLDFKITGGWIIDGTGAPRRRADLGVRDGRIAAIGELGAHPARHAWDASGKIVAPGFIDVHGHDDLMFVEKPDLRWKTSQGITTVVVGNCGVSAAPAPLPGNTAAALALLGETPLFADVPAYFAALDAQRPMINVAALVGHANLRLAAMRDPQAAPTAAEQQAMQDMLQAALEAGAVGFSTGLAYQPGAVAQAAELEGLARVAAERRRLHTSHIRNEADGVEAAVEEVLAIGRGTGCATVVSHHKCMMPQNWGRSRATLANIDRAREQGVEVALDIYPYPGSSTILIPERAETIDDIRITWSTPHPECSGEYLADIAARWGCDKTTAARRLAPAGAIYFAMDEDEVKRIFQHPCCMVGSDGLPNDARPHPRLWGSFTRVLGRYVREARLMTLEQAVARMTALPARVFGFAERGVLQPGAWADVVVFDPDTVADRATWDEPTLASVGIAGVLVNGAEVFPQPPADGRPGQVLRAGA
Consider B1, for which, in data set [1], the kcat/Km – broadly, the turnover number divided by the Michaelis constant – is 96000 ± 35000 M⁻¹ s⁻¹. Further, in data set [2], the Km (usually the concentration of substrate that gives half-maximal velocity) was determined as 380 ± 35 µM and the kcat (commonly the maximal rate divided by the concentration of active sites) amounted to 2200 ± 72 s⁻¹.
